Reference: patent US20180170984, “SITE-SPECIFIC DNA BASE EDITING USING MODIFIED APOBEC ENZYMES” (Regents of the University of Minnesota, published 2018)

These binders were tested against APOBEC3A E72A (1-195) (Homo sapiens, UniProt P31941 SEQ:1-195, E72A) (assay: structure; crystal structure 3.15 Å, PDB 5SWW, U-shaped ssDNA, Zn). Settings: not given.
Description: Purified A3A and A3Bctd* were mixed with ˜1.5 molar excess ssDNA (see below) at a final protein concentration of 25-30 mg ml⁻¹. The A3A-ssDNA complex crystal was obtained in a sitting drop formed by mixing the complex solution with an equal volume of 0.2 M NaF, 20% (w/v) PEG3350, 0.1 M Bis-Tris propane (pH 6.5), equilibrated via vapor diffusion against the same reservoir solution. The A3Bctd*-ssDNA crystal was obtained similarly, using a reservoir solution consisting of 0.45 M NaI and 20% (w/v) PEG3350. The crystals were mounted directly from the Intelli-Plate 96 (Art Robbins Instruments) and flash cooled in liquid nitrogen using glycerol or ethylene glycol as cryo-protectant. X-ray diffraction data were collected at the Advanced Photon Source Northeastern Collaborative Access Team beamline 24-ID-C using the selenium K-absorption edge wavelength, and the data were processed with XDS (Kabsch, Acta Crystallogr D Biol Crystallogr 66:125-132, 2010). The A3A-DNA complex crystal is in the space group of P2221. […] Using monomeric A3A (pdb 4XXO; Bohn et al., Structure 23:903-911, 2015) as a search model, the molecular replacement calculations by PHASER (McCoy et al., J Appl Crystallogr 40:658-674, 2007) located four copies of A3A in the asymmetric unit. […]

APOBEC3A E72A (1-195), sequence (P31941 1-195 E72A): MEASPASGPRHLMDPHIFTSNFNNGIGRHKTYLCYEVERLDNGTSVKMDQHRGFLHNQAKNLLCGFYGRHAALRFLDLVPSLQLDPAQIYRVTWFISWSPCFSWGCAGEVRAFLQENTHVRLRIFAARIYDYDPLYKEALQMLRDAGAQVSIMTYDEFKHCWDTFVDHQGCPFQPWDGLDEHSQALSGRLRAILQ

Q: Does AAAAAAATCGGGAAA (ssDNA) [A3A crystallization ligand] bind?
A: binds

What follows are binders tested against APOBEC3A D131A (Homo sapiens, UniProt P31941 SEQ:1-199, D131A) (assay: deamination, 50 nM enzyme, 1 h 37 C). Settings: tags: myc-His, 293T; label: 3'-fluorescein.
From the text: (§1) FIGS. 10A-10C provide corroborating biochemical data for human A3A. FIGS. 10A and 10B show DNA cytosine deamination by human A3A (WT, wild-type) and the indicated mutant derivatives (S, substrate; P, product). The corresponding anti-MYC (A3A) and anti-TUBULIN immunoblots indicated similar levels of A3A and soluble extract in each experiment relative to controls (A3A has two bands due to alternative translation initiation from Met1 or Met13). Reactions in FIG. 10A interrogated active site mutants using a 43-nucleotide 5′-TC-containing ssDNA substrate, and reactions in FIG. 10B additionally interrogated the identity of the −1 position (A, C, G, or T) relative to the target cytosine. The results are representative of two independent experiments. FIG. 10C is a series of graphs quantifying product accumulation in dose response experiments for A3A and the indicated D131 derivatives using the same ssDNA substrates as FIG. 10B.
(§2) Recombinant A3A-myc-His and mutant derivatives were expressed in 293T cells and purified as described by nickel affinity chromatography (Stenglein et al., supra; Li et al., supra; and Carpenter et al. 2012, supra). Activity assays were conducted as outlined above, except reactions were initiated by adding 5 μl of enzyme (2-fold dilutions starting at 200 nM) to 5 μl of 50 mM NaCl, 10 mM HEPES buffer (pH 7.4) containing 1.6 μM fluorescently labeled ssDNA (sequences above). Reactions progressed 1 hour at 37° C. and processed and quantified as described above.

APOBEC3A D131A, sequence (P31941 whole entry D131A): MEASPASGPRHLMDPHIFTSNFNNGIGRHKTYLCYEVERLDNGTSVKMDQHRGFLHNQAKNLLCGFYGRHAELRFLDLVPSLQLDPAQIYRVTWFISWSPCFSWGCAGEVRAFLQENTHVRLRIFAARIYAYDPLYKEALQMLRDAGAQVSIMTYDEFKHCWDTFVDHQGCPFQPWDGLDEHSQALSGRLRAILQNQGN

Q: For ATTATTATTATTCAAATGGATTTATTTATTTATTTATTTATTT (ssDNA) [-1 TCA substrate], which activity is on record?
A: 3.7 % product

Q: ATTATTATTATACAAATGGATTTATTTATTTATTTATTTATTT (ssDNA) [-1 ACA substrate] was tested. Which activity did it give?
A: 8.7 % product

Q: For ATTATTATTATGCAAATGGATTTATTTATTTATTTATTTATTT (ssDNA) [-1 GCA substrate], which activity is on record?
A: 4 % product

Q: With ATTATTATTATCCAAATGGATTTATTTATTTATTTATTTATTT (ssDNA) [-1 CCA substrate] as the binder, how does the activity read?
A: 10.1 % product

What follows are binders tested against APOBEC3A D131T (Homo sapiens, UniProt P31941 SEQ:1-199, D131T) (assay: deamination, 50 nM enzyme, 1 h 37 C). Settings: tags: myc-His, 293T; label: 3'-fluorescein.
From the text: as §1, §2

APOBEC3A D131T, sequence (P31941 whole entry D131T): as the sequence (P31941 whole entry D131A) above, with A131T counted along it

Q: How did the activity turn out when ATTATTATTATTCAAATGGATTTATTTATTTATTTATTTATTT (ssDNA) [-1 TCA substrate] was run?
A: 96.6 % product

Q: Which activity does the source give for ATTATTATTATACAAATGGATTTATTTATTTATTTATTTATTT (ssDNA) [-1 ACA substrate] here?
A: 16.6 % product

Q: Which activity does the source give for ATTATTATTATGCAAATGGATTTATTTATTTATTTATTTATTT (ssDNA) [-1 GCA substrate] here?
A: 14.2 % product

Q: With ATTATTATTATCCAAATGGATTTATTTATTTATTTATTTATTT (ssDNA) [-1 CCA substrate] as the binder, how does the activity read?
A: 67.5 % product

The binders below were run against APOBEC3A wild-type (Homo sapiens, UniProt P31941 SEQ:1-199) (assay: deamination, 50 nM enzyme, 1 h 37 C). Settings: tags: myc-His, 293T; label: 3'-fluorescein.
From the text: as §1, §2

APOBEC3A wild-type, sequence (P31941 whole entry): as the sequence (P31941 whole entry D131A) above, with A131D counted along it

Q: With ATTATTATTATTCAAATGGATTTATTTATTTATTTATTTATTT (ssDNA) [-1 TCA substrate] as the binder, how does the activity read?
A: 98.3 % product

Q: For ATTATTATTATACAAATGGATTTATTTATTTATTTATTTATTT (ssDNA) [-1 ACA substrate], which activity is on record?
A: 7.6 % product

Q: How did the activity turn out when ATTATTATTATGCAAATGGATTTATTTATTTATTTATTTATTT (ssDNA) [-1 GCA substrate] was run?
A: 13 % product

Q: For ATTATTATTATCCAAATGGATTTATTTATTTATTTATTTATTT (ssDNA) [-1 CCA substrate], which activity is on record?
A: 42.9 % product

Each binder was assayed against APOBEC3A D131E (Homo sapiens, UniProt P31941 SEQ:1-199, D131E) (assay: deamination, 50 nM enzyme, 1 h 37 C). Settings: tags: myc-His, 293T; label: 3'-fluorescein.
From the text: as §1, §2

APOBEC3A D131E, sequence (P31941 whole entry D131E): as the sequence (P31941 whole entry D131A) above, with A131E counted along it

Q: For ATTATTATTATTCAAATGGATTTATTTATTTATTTATTTATTT (ssDNA) [-1 TCA substrate], which activity is on record?
A: 27.3 % product

Q: ATTATTATTATACAAATGGATTTATTTATTTATTTATTTATTT (ssDNA) [-1 ACA substrate] was tested. Which activity did it give?
A: 36.6 % product

Q: Which activity does the source give for ATTATTATTATGCAAATGGATTTATTTATTTATTTATTTATTT (ssDNA) [-1 GCA substrate] here?
A: 30.8 % product
